These results are taken from PMC8517440, “Structural and Catalytic Characterization of TsBGL, a β-Glucosidase From Thermofilum sp. ex4484_79” (Frontiers in Microbiology, 2021).

Substrate in series [1]: O=[N+]([O-])c1ccc(O[C@@H]2O[C@H](CO)[C@H](O)[C@H](O)[C@H]2O)cc1
Briefly: purified protein. The series is classed as biochemical, Thermofilum sp. ex4484_79. Particulars: pH 5.0, 90°C, table header prints mm^-1, text prints 1.05 mm.

Substrate in series [2]: O=[N+]([O-])c1ccc(O[C@@H]2O[C@H](CO)[C@@H](O)[C@H](O)[C@H]2O)cc1
Briefly: purified protein. The series is classed as biochemical, Thermofilum sp. ex4484_79. Particulars: pH 5.0, 90°C, 0.1-6.0 mM substrate, kcat printed 135.1 in Table 2.

B1: TsBGL (Thermofilum sp. ex4484_79) (protein)
chain: MPFPEKFFWGASSSGFQFEMGDPEGKSIDPNTDWFKWVHDETNIRRGVVSGDLPEHGINYWDLFRSDHELAASIGMNAYRIGIEWSRIFPKPTLDVRVGIELDPEGYITRVEVDDKAIEELDLLANKEAVSRYREIILDLRDRGLKVFVCLNHFTLPLWIHDPIACRDTKLKRGPKGWVDKTTILEFAKYSAYMAWSLGNIVDYWVTFNEPMVVTEAGYFQPEVGFPPGLRNISAFKTACLNIANAHVVAYDLIKKYDKVRADDDSPSAAYVGIVHNIVPIKPYSERKLDLKAADLMNYIHNKWILEFIVRGKIDRSLVGREKYLIDKFKDKLDWLGVNYYTRIVLKGKWVPPLISPVPVIPDIVKGYGFNCTPGGRSLDGMPVSDFGWEVYPQGLSDALDIASEYGKPLIVTENGIADSEDNIRPYFLVSHLKVLEEYVEKKKNVYGYLHWALTDNYEWAQGFKMRFGLTDVDLETKERKPRESSEVFKIIASEKTVPEELVEKYPKPIF
notes: synthetic gene in E. coli BL21(DE3) pLysS; N-terminal His6-SUMO tag cut with Ulp1; check)
What is called Km is the substrate concentration at which the rate is half of its maximum. By kcat is commonly meant the number of substrate molecules converted per active site and unit of time at saturation. In general, kcat/Km refers to the second-order rate constant that governs catalysis at low substrate concentration. For the protein B1, in “purified protein [1]”, the Km amounted to 1054 µM, the kcat was 124 s⁻¹ and the kcat/Km stood at 118000 M⁻¹ s⁻¹. In addition, in the series “purified protein [2]”, the Michaelis-Menten constant (Km) turned out to be 617 µM and the kcat came to 136.05 s⁻¹.
